The record followed here is article PMC3690481 (2013).

Read-outs that look alike come from different tables or passages of the source.

The target in test [1] is T1, FlAsH-tagged Met1-diUb (UniProt P0CG48 1-76; P0CG48 1-71, Lumio Green (FlAsH) on the C-terminal WCCPGCC motif). As to the kind of experiment: FP.
In test [2] the target is T1, FlAsH-tagged Met1-diUb. As to the kind of experiment: FP. The source holds these as a separate data set.

B1: NEMO UBAN domain (domain or fragment)
chain: GMQLEDLKQQLQQAEEALVAKQEVIDKLKEEAEQHKIVMETVPVLKAQADIYKADFQAERQAREKLAEKKELLQEQLEQLQREYSKLKAS
B1: the affinity in the test with FlAsH-tagged Met1-diUb [1], expressed as Kd, was 3.7 µM.

B2: OTULIN C129A TQK100-102AAA (enzyme)
chain: MSRGTMPQPEAWPGASCAETPAREAAATARDGGKAAASGQPRPEMQCPAEHEEDMYRAADEIEKEKELLIHERGASEPRLSVAPEMDIMDYCKKEWRGNAAAATCMKMGYEEVSQKFTSIRRVRGDNYAALRATLFQAMSQAVGLPPWLQDPELMLLPEKLISKYNWIKQWKLGLKFDGKNEDLVDKIKESLTLLRKKWAGLAEMRTAEARQIACDELFTNEAEEYSLYEAVKFLMLNRAIELYNDKEKGKEVPFFSVLLFARDTSNDPGQLLRNHLNQVGHTGGLEQVEMFLLAYAVRHTIQVYRLSKYNTEEFITVYPTDPPKDWPVVTLIAEDDRHYNIPVRVCEETSL
Consider B2, for which, in the test with FlAsH-tagged Met1-diUb [2], the Kd – broadly, the free concentration of one partner at which half of the binding sites on the other are occupied at equilibrium, for simple one-to-one binding – turned out to be 36.1 µM.
